Assay results from the DeepSol protein solubility set.

Assay: soluble on expression in E. coli; label from the status in PepcDB or PDB records
With “MSIHVNEANLTFHLQTDHTSYIFQIMKNGEAGQIYYGPRIHVQPTYQNLMSQEWRDATPSLNEENPNFQPATIKAEYASLGKGDFRQPAFQVTQANGSRITELTYDHYQLLTGKQRLANLPSTFDDTDDDAQTLVVSFNDRITGLALDLNYSIFPHQDVIVKSAKFTNPSSEKLVLNRALSSQLDLPDANYDLIQFSGTWARERHLYRHPLRPGMQSISSLRMASSHQQNPFMMLARPQTTDEQGAVFGFNLVYSGNFLDAIEVDQYSTSRILTGINPDEFGWNLAPQATFQTPEAILSYTSAGMNQLSQQMASFYQQHLVNPRFAHEERPVLINNWEATYFDFNEAKLMTIVNQAKRLGIEMFVLDDGWFGHRDDDTTSLGDWFVDQRKFPDGIEHFSQAVHQQGMKFGLWFEPEMVSVDSDLYQQHPDWLIHAPKSTPTPGRHQFVLDMARPEVVDYLFKLMSQMIESANLDYIKWDMNRYATEMFSSRLTSDQQLELPHRYILGVYQLYARLTQAYPNVLFESCASGGGRFDLGMMYYAPQAWTSDDTDAAERLLIQFGTSYGYPQAMMGAHVSAVPNDQMGRITSLKTRGAVAFFGDLGYELDITKMAPTELDQVKKQVAFYKCYRQLFQFGKFYRIDSPFVEDGNVTSWQVVSDDQKQAIAARYQLLNHPNAPYTRFYFKGLRPNQRYQINDDPSTYYGDELMNAGYFVPTILADGQESKDFYTQLFVVTAILEHHHHHH” the “soluble on expression in E. coli” value was “soluble”. For “MSLKQYSVKELTKLYKFLVIKANETRKLTLQDKNGIVKSNTDYNGVINRAQLGYDNILDILPSVSGSYSKPKYIISSNLMCYTGITGIYFPFTGEANVNIAIPDLYIPCTVEHEMAHQRGFASEDEANFIAYLTSIKHPNIDFNYSGYILALNYTASALSKVDYNAYVDISAGISDSVRRDLKNESEFWQKYEGKINEISNEFNNSYLKANGVTEGTQSYGKMVDLLLTYYELYPYNEGHHHHHH”, the “soluble on expression in E. coli” value was “soluble”. For “MGSDKIHHHHHHALKKIYPHATNVSWSQQGNYYVASFTQNGFEKEVWMNGNAQWVMTNTDLQTTDQLTPNVYNDFTLSPYAMWTATNVNLIEFPKRTTLYVITVNLNNSSATKQLFYTLNGRLLQTRDVSYINPTLSPGIFEF”, the “soluble on expression in E. coli” value was “not soluble”. In the case of “MGRMSEKLGQDIKQSIFKVPPLIQKSDIDPEHCRVSAQLDDNVDDNIPLRVMLLLMDEVFDLKDRNQWLRRNIKNLLQQLIKATYGDTINRKIVDHVDNMTSPEQVSDYVKRFRDSYWPNGILAETPPRRDKNLRMRTRVAAKTTLLGIMPDELKHIIGADTTRKGILRVFEMFQHQPLNRRLVYVFLEGFLETLFPQYKFPELFEKLHSRSPRVLKYSHKLRSLQKR”, the “soluble on expression in E. coli” value is reported as “not soluble”. For “EVQLLEESGPGLVQPSQSLSITCTVSGFSLTSYGVHWVRQSPGKGLEWLGVIWSGGSTDYNAAFISRLSISKDNSKSQVFFKMNSLQADDTAIYYCARNRGYSYAMDSWGQGTSVTVSSAKTTPPSVYPLAPGSAAQTNSMVTLGCLVKGYFPEPVTVTWNSGSLSSGVHTFPAVLQSDLYTLSSSVTVPSSTWPSETVTCNVAHPASSTKVDKKIVPRDCTS”, the “soluble on expression in E. coli” value was “soluble”. In the case of “MLGLVSLCALILILWRVVYRSVTRPLAEQTQALQRLLDGDIDSPFPETAGVRELDTIGRLMDAFRSSVHALNRHREQLAAQVKARTAELQELVIEHRQARAEAEKASQAKSAFLAAMSHEIRTPLYGILGTAQLLADNPALNAQRDDLRAITDSGESLLTILNDILDYSAIEAGGKNVSVSDEPFEPRPLLESTLQLMSGRVKGRPIRLATEIADDVPTALMGDPRRIRQVITNLLSNALRFTDEGHIILRSRTDGEQWLVEVEDSGCGIDPAKLAEIFQPFVQVSGKRGGTGLGLTISSRLAQAMGGELSATSTPEVGSCFCLRLPLRIATAPVPKTVNQAVRLDDLRLLLIEDNPLTQRITVEMLNTSGAQVVAVGNAAQAIEALQNSEPFAAALVDFDLPDIDGITLARQLAQQYPSLVLIGFSAHVIDETLRQRTSSLFRGIIPKPVPREVLGQLLAHYLQLQVNNDQPLDVSQLNEDAHLMGAEKIHEWLILFKQHALPLLDEIDIARASQDNEKIKRAAHQLKSSCSSLGMRSASQQCAQLEQQPLSAPLPHEEITRSVAALEAWLIRKT”, the “soluble on expression in E. coli” value is reported as “not soluble”. With “MNHLTNQYVMLHDEKRCIGCQACTVACKVLNDVPEGFSRVQVQIRAPEQASNALTHFQFVRVSCQHCENAPCVSVCPTGASYRDENGIVQVDKSRCIGCDYCVAACPFHVRYLNPQTGVADKCNFCADTRLAAGQSPACVSVCPTDALKFGRLDESEIQRWVGQKEVYRQQEARSGAVSLYRRKEVHQEGKA” the “soluble on expression in E. coli” value was “not soluble”. With “MDYRIRTSRDEDAALLPAIERSAGESFRLLPELAWIADAGVAGVDFHRRLIERGSHWLAEDADGQPVGFLAAERCADELHIAELSIAQAHQQQGLGRRLLERAVTYAHASHCRALTLTTFCDVPWNAPFYARLGFQRLTWQEAGERLRAILGHEQEIGFAADSRCAMRLVL” the “soluble on expression in E. coli” value was “not soluble”. In the case of “MGSDKIHHHHHHMGFKEDFMGNAPGACPFLHLVERSTSDVLEQAEALPFWSQDYTQLSKGAFSGSVTSVSCDGLQIFTETMNQAVDQIASAPVDSYVMGLPTLVDGESTWGLLPITTNSLITLEKNAELYFKTSNISEITAAVIPAQRLETYAAEVEWIDLSKVMEGLKPVEMLHPDIAQQLLSALQGGIQYKADIADNIHAHQMWRNFEDDLLSTCLHTLLHVRGNIHPHFDQRLPRYLVNRVRDYTLSNSALPLTIGELCKSLRVSRRTLNHAFIRVLGITPVAYIRNLRLHRVRFEMQQSPHEVISIAHLATKWGFWHLSLFSRYYRELFGECPIDTLQRARLESKRP”, the “soluble on expression in E. coli” value is reported as “not soluble”. In the case of “MHGTCLSGLYPEPFTHNSHDYPHFNIYISFGGPKYCITALNTYVIPLLHHILTTQFIHTYFNIPTKSPPKSPKHKNYLSFNFTK”, the “soluble on expression in E. coli” value is reported as “soluble”. In the case of “MTESAPSAFFTTSTPADHVHEEESSNTGYFENLPENDIHSFFEIDATSEWIKQGNHQRIALQFPDSLLPYSEKVTKLIESRFRSESAKKTFVLADTSYRSCCVDEVAAAHADCTALVHFGEACHSAPTDKIDVKYVLGSMPIFIDQFRMEFQNVADQLTAEHIVLLMDSCFSHEQEKVAAVIKEVLPGNRHVECSLLPSEDVLKQNRQNIYLGREIPSCLRNNQPTDLIFCGFPNSPLLPIWLLSYPSCSTVSHFNPINKTIQHESTRSSRLLRKRLFLVEKLKDADTVGLVVGSVGVDKHREAVKRMREMCKKAGKKIYVISVGKINVPKLSNFSTDIDVFVLLSCPFGVVLDSSDYFRPVVSYFEAEIALNPAKTWAADFGWSAEFAAFLEDKIETEVPDDKAAGDFSLISGKVRVQKTEEEKNGDGPSSVAIYNPGYCNDRTWKGLNDGVSTAEDSTKMGEGRSGIAQGYSGK”, the “soluble on expression in E. coli” value is reported as “not soluble”. In the case of “QPKPEVPQCVADWIEECKEEDLTLKGLFSNSDMPAKIFDWIFGSDENCRLMAEAWINGYTVEKEKLYTVDLPNGQPLVRGINTLYFSQNLATENVKLTESEIRKDFEWAWQFAEEVTE”, the “soluble on expression in E. coli” value is reported as “not soluble”. In the case of “GMTEAFPALVRQDDARYAITVGPDLAVGPPGHAYLFGGASMALALDVAAETVGRPVVQGSLQFVSFTPLGSVLDLTVEVLQSGRTLAQARVAGTVDGRLVFHSGISLGMREGFSARQWALAPPVPQPDNCPPCTTLPAQDDNARYLEGIEVREAGGPEVPSGRTRLWLRRKDGAPLDAASLAMFADFLPIALGRATGCSGGGNSLDNSLRITGAAAPGWCLCDMIIPSSASGFAQGQVTLWDQSGRLLATGAQSLLLKG”, the “soluble on expression in E. coli” value is reported as “soluble”. For “MIPLMHDFEGETVLVVGGGSVGARKARTFATEASVVVLSPEFGDRTFADAEKVRAAPTPEDATDWVERTDPALVVAATDDSDLNGAFSTAAAEHGALVNRTDDHGDQSFGNIVVPATVRDDPVTLAIATGGRAPALSKHLRERFEDEFGNAGLMADLVGDLREDLRDRGVPPAKRRDAVRFVVRSREVWKALDSGRSKGEQVARDVIGELPGDQT”, the “soluble on expression in E. coli” value was “not soluble”. For “MGSDKIHHHHHHMKGSTDLESRLPSAGAYGDRFASYFKLAKASVFKTGSLRTGEIAYTETSGYCHKPEPSVPVPPEDAFLVQTQLQDYPNHISWEDGRPGIVGTLRAGHTILRDLQRKPNAIIMGPHHTVHFYIPRATFNTVAEDLEARSISELAYVPAQPIDDDVIRGLIGTVRAAIKAPEETNRLFLDHLMMAAAVHLAQTYGGLKPRSLQHRGGLAPWQARLAIELLEGDLTGQLPLKDVAAACKLSVSYFSKAFCKTTGLAPHQWLLYRRVERAKSAMINEKTTLAEVALSCGFSDQSHFTRVFVRLVGTSPATWRRARNL”, the “soluble on expression in E. coli” value was “not soluble”. For “MGSDKIHHHHHHMNLPSILVIDDLPDNFDVIETLLSEQDYTLHYVASGQEAIASLNLFQPDLILLDVMMPGMDGIEVCQRIKAMPQWQSVPIIMVTALTAKEDLARCLKSGADDFISKPINALELRARLHSMLRIKQQYDKIQTLSNIQTSTIKVLESTLDELRGNLAAALPHELNTPLNGIVGTISILMADIENMDTGEIQELLGWVDLSARNLERLIKQLLLYLELELSTNQQQNIASESTHFSIAVIEAILQSHAPSVNRRDDLMFAIEEAEVSISARYLAIIIYELVDNALKFSRRGTTIKISSQVVAGMLNVYIHDFGRGMTEEQISKIGAFMQFERKTYEQQGIGMGLKLAKQIIESHGGLFSISSVYKKETMVHIALPIAYSRYLS”, the “soluble on expression in E. coli” value was “not soluble”. For “MQGFASQPESSYWYPETLLDWSPETDPDARFNRSSIPLREREVLYTVNDTQQTDAKLVALSALNPNTSGVPSQGGNEFFANTFGFWQYVDLMVYWAGSAGEGIITPPSGDVIDAAHRNGVPILGNVFFPPKVYGGQEEWVDKMLVRGEDGSFPAADKLLEVAEYYGFDGWFINQETEGGTPETAKDMQEFLLYLQENKPEGMHIMWYDSMISNGDIRWQNYLTDENAMFFQAGNRKVADSMFLNFWWWNHSQERSKQKAASLGRSPYDLYAGIDVEANGTNTYVNWQQVFPEGGEPHTSLGIYRPDWAFKSTDTMRDFYDREQLFWVGPSGNPAKVDEHAEWKGMATYFPEKTVINELPFVTHFNTGSGQFFAINGKTKLEHHHHHH”, the “soluble on expression in E. coli” value was “not soluble”. For “TDPGAEELPARIFVALFDYDPLTMSPNPDAAEEELPFKEGQIIKVYGDKDADGFYRGETCARLGLIPCNMVSEIQADDEEMMDQ”, the “soluble on expression in E. coli” value was “soluble”. In the case of “MGSDKIHHHHHHMNFPRPLVPATLVQRYKRFLFDAILADGTAITGSCPNTGSMRGLTIPGSPIWLSEHDSPTRKYRHMLEIVEADGTLVGINTGLPNRIAEEAIMAGQVGNLHTYGTLRREQRYGRNSRIDILLSDAEKGLAYVEVKNVHFSRVRGLAEFPDSPTQRGAKHLEELGDMVEAGHRAIMLYLIQRGDCSRFRICRELDPVYARAFERASARGVEAYAVKCAVSPGQIVAAGPIVVDEPVPAVL”, the “soluble on expression in E. coli” value is reported as “not soluble”. For “QESSGNKIHFINVQEGGSDAIILESNGHFAMVDTGEDYDFPDGSDSRYPWREGIETSYKHVLTDRVFRRLKELSVQKLDFILVTHTHSDHIGNVDELLSTYPVDRVYLKKYSDSRITNSERLWDNLYGYDKVLQTATETGVSVIQNITQGDAHFQFGDMDIQLYNYENETDSSGELKKIWDDNSNSLISVVKVNGKKIYLGGDLDNVHGAEDKYGPLIGKVDLMKFNHHHDTNKSNTKDFIKNLSPSLIVQTSDSLPWKNGVDSEYVNWLKERGIERINAASKDYDATVFDIRKDGFVNISTSYKPIPSFQAGWHKSAYGNWWYQAPDSTGEYAVGWNEIEGEWYYFNQTGILLQNQWKKWNNHWFYLTDSGASAKNWKKIDGIWYYFNKENQMEIGWVQDKEQWYYLDVDGSMKTGWLQYMGQWYYFAPSGEMKMGWVKDKETWYYMDSTGVMKTGEIEVAGQHYYLEDSGAMKQGWHKKANDWYFYKTDGSRAVGWIKDKDKWYFLKENGQLLVNGKTPEGYTVDSSGAWLVDVSIEKSATIKTT”, the “soluble on expression in E. coli” value was “soluble”.
